In this assay the target is T1, CEACAM5 (R&D Systems, 4128-CM-050) (human, UniProt P06731 35-685).
T1 construct: Immobilised on the ELISA plate; also called human CEACAM5
T1 sequence (looked up): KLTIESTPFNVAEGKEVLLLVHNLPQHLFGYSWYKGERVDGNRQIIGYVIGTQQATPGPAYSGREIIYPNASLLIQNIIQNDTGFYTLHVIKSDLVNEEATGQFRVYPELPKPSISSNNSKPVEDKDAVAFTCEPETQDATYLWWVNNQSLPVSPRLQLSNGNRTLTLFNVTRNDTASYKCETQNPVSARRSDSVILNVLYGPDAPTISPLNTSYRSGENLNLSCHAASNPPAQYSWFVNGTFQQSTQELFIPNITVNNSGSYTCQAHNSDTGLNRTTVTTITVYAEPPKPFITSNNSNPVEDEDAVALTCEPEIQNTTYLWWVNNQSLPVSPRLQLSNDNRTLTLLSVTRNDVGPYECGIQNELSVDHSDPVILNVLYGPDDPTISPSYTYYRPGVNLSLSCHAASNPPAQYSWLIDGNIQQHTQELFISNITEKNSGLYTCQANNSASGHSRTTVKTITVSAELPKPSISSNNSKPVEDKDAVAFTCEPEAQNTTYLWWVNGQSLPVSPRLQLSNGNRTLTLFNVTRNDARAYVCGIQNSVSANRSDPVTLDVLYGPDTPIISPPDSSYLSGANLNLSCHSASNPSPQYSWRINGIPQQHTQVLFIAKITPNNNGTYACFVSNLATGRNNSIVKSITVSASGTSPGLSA
The assay can be described thus: ELISA on immobilised CEACAM5, 4-parameter fit, duplicate. As for the experimental part: Each anti-human CEACAM5 antibody Fab fragment conjugate prepared in Example 2 was subjected to ELISA to evaluate the binding activity thereof to CEACAM5. In the present test, a phosphate buffer (Nacalai Tesque Inc., 0.1 mol/L-Phosphate Buffer Solution (pH 7.2)) prepared to 10 mM by diluting 10-fold with distilled water was used as a solvent for an antigen immobilization liquid, and 20×PBS/Tween 20 Buffer (Thermo Fisher Scientific Inc., 28352) diluted 20-fold with distilled water was used as a wash liquid. In addition, for bovine serum albumin (BSA) used in the present test, 30% Bovine Serum Albumin solution (Sigma-Aldrich, Inc., A9576-50ML) was added in an appropriate proportion for use. CEACAM5 (R&D Systems, 4128-CM-050) was diluted with a 10 mM phosphate buffer (pH 7.2) to 0.1 μg/mL, and added to a Nunc MaxiSorp White 384 plate (Nunc, 4603272) at 30 μL per well, and the plate was incubated overnight at 4° C. for immobilization. The CEACAM5 immobilization liquid was removed by reverse centrifugation, and then blocking was carried out by adding a PBS/Tween 20 buffer containing 5.0% BSA. Thereafter, the blocking solution was removed by reverse centrifugation, a solution of each CEACAM5 antibody Fab² fragment conjugate described above or a Fab² fragment having no labeling portion (PB009-01) as a control at about 10000 ng/mL was diluted in 14 steps by 3-fold dilution using a PBS/Tween 20 buffer containing 1.0% BSA, and 30 μL was added per well and incubated at room temperature for 60 minutes. The plate was washed 3 times with a PBS/Tween 20 buffer, and Horseradish Peroxidase (HRP)-labeled goat anti-human IgG (H+L chain) antibody (MBL Life Sciences, 206) diluted 1000-fold using a PBS/Tween 20 buffer containing 5.0% BSA was added at 30 μL per well and incubated at room temperature for 30 minutes. The plate was washed 3 times with a PBS/Tween 20 buffer, and ECL Prime Western Blotting DETECTION Reagent (GE Healthcare, RPN2232) as a substrate was added at 30 μL per well. The substrate was incubated at room temperature for 15 minutes, and then a signal value thereof was measured using an Envision counter (PerkinElmer, Inc.).
The test for each antibody was carried out in duplicate, and an EC₅₀ value was calculated using a 4-parameter logistic curve model.
(In general: In an ELISA, binding on a coated surface is turned into a signal by an enzyme label.)

B1: (Y-S1-X)p-Fab^2 with Y Gd/DOTA, S1 - (bond), X -Gly-Tyr*-CH2-C(═O)-NH-(CH2)2-Z1(#S)- (Fab, V domains shown)
VH: EVQLVESGGGLVQPGGSLRLSCAASGFNIRDTYMHWVRQAPGKGLEWVARIDPANGNSRYVPKFQGRFTISADTSRNTAYLQMNSLRAEDTAVYYCAPFGYYVSDYAMAYWGQGTLVTVSS
VL: DIQLTQSPSSLSASVGDRVTITCRAGESVDIFGVGFLHWYQQKPGKAPKLLIYRASNLESGIPSRFSGSGSRTDFTLTISSLQPEDFATYYCQQTNEDPYTFGQGTKVEIKR
modifications: labeling may sit on this chain; sites not stated; labeling portion (MW 1061) on amino groups of the Fab, sites and chain not stated; 1-3 per Fab by MS
notes: also called Ex-No 7; conjugate 7
On to B1, for which the midpoint of the response, the EC50, lay at 170 pM.

B2: [Gd/4arm-DOTA-CH2-(1,4-Ph)-NH-C(═S)-Gly-Phe-Lys*-Z2(#N)]p-Fab^2 (Fab, V domains shown)
VH: EVQLVESGGGLVQPGGSLRLSCAASGFNIRDTYMHWVRQAPGKGLEWVARIDPANGNSRYVPKFQGRFTISADTSRNTAYLQMNSLRAEDTAVYYCAPFGYYVSDYAMAYWGQGTLVTVSS
VL: DIQLTQSPSSLSASVGDRVTITCRAGESVDIFGVGFLHWYQQKPGKAPKLLIYRASNLESGIPSRFSGSGSRTDFTLTISSLQPEDFATYYCQQTNEDPYTFGQGTKVEIKR
modifications: labeling may sit on this chain; sites not stated; labeling portion (MW 1136) on amino groups of the Fab, sites and chain not stated; 1-3 per Fab by MS
notes: also called Ex-No 12; Conjugate No. 12
The molecule B2 gave an EC50 of 110 pM.

B3: (Y-S1-X)p-Fab^2 with Y Gd/DOTA, S1 - (bond), X -Gly-Lys*-Z2(#N)- (Fab, V domains shown)
VH: EVQLVESGGGLVQPGGSLRLSCAASGFNIRDTYMHWVRQAPGKGLEWVARIDPANGNSRYVPKFQGRFTISADTSRNTAYLQMNSLRAEDTAVYYCAPFGYYVSDYAMAYWGQGTLVTVSS
VL: DIQLTQSPSSLSASVGDRVTITCRAGESVDIFGVGFLHWYQQKPGKAPKLLIYRASNLESGIPSRFSGSGSRTDFTLTISSLQPEDFATYYCQQTNEDPYTFGQGTKVEIKR
modifications: labeling may sit on this chain; sites not stated; labeling portion (MW 825) on amino groups of the Fab, sites and chain not stated; 1-3 per Fab by MS
notes: also called Ex-No 20; conjugate 20
B3 registered an EC50 of 220 pM.

B4: (Y-S1-X)p-Fab^2 with Y Gd/DOTA, S1 - (bond), X -Met-Ile-NH-(CH2)2-Z1(#S)- (Fab, V domains shown)
VH: EVQLVESGGGLVQPGGSLRLSCAASGFNIRDTYMHWVRQAPGKGLEWVARIDPANGNSRYVPKFQGRFTISADTSRNTAYLQMNSLRAEDTAVYYCAPFGYYVSDYAMAYWGQGTLVTVSS
VL: DIQLTQSPSSLSASVGDRVTITCRAGESVDIFGVGFLHWYQQKPGKAPKLLIYRASNLESGIPSRFSGSGSRTDFTLTISSLQPEDFATYYCQQTNEDPYTFGQGTKVEIKR
modifications: labeling may sit on this chain; sites not stated; labeling portion (MW 1027) on amino groups of the Fab, sites and chain not stated; 1-2 per Fab by MS
notes: also called Ex-No 8; conjugate 8
Take B4: a half-maximal response (EC50) required 110 pM.

B5: [Gd/DOTA-NH-CH2-(1,3-Ph)-C(═O)-Met-Gly-Lys*-Z2(#N)]p-Fab^2 (Fab, V domains shown)
VH: EVQLVESGGGLVQPGGSLRLSCAASGFNIRDTYMHWVRQAPGKGLEWVARIDPANGNSRYVPKFQGRFTISADTSRNTAYLQMNSLRAEDTAVYYCAPFGYYVSDYAMAYWGQGTLVTVSS
VL: DIQLTQSPSSLSASVGDRVTITCRAGESVDIFGVGFLHWYQQKPGKAPKLLIYRASNLESGIPSRFSGSGSRTDFTLTISSLQPEDFATYYCQQTNEDPYTFGQGTKVEIKR
modifications: labeling may sit on this chain; sites not stated; labeling portion (MW 1089) on amino groups of the Fab, sites and chain not stated; 1-3 per Fab by MS
notes: also called Ex-No 13; Conjugate No. 13
Regarding B5, the EC50 turned out to be 140 pM.

B6: (Y-S1-X)p-Fab^2 with Y Gd/DOTA, S1 - (bond), X -Met-Ile-Lys*-Z2(#N)- (Fab, V domains shown)
VH: EVQLVESGGGLVQPGGSLRLSCAASGFNIRDTYMHWVRQAPGKGLEWVARIDPANGNSRYVPKFQGRFTISADTSRNTAYLQMNSLRAEDTAVYYCAPFGYYVSDYAMAYWGQGTLVTVSS
VL: DIQLTQSPSSLSASVGDRVTITCRAGESVDIFGVGFLHWYQQKPGKAPKLLIYRASNLESGIPSRFSGSGSRTDFTLTISSLQPEDFATYYCQQTNEDPYTFGQGTKVEIKR
modifications: labeling may sit on this chain; sites not stated; labeling portion (MW 1012) on amino groups of the Fab, sites and chain not stated; 1-2 per Fab by MS
notes: also called Ex-No 10; conjugate 10
B6 came in with an EC50 of 110 pM.

B7: (Y-S1-X)p-Fab^2 with Y Gd/DOTA, S1 -NH-CH2-(1,3-Ph)-C(═O)-, X -Gly-Lys*-Z2(#N)- (Fab, V domains shown)
VH: EVQLVESGGGLVQPGGSLRLSCAASGFNIRDTYMHWVRQAPGKGLEWVARIDPANGNSRYVPKFQGRFTISADTSRNTAYLQMNSLRAEDTAVYYCAPFGYYVSDYAMAYWGQGTLVTVSS
VL: DIQLTQSPSSLSASVGDRVTITCRAGESVDIFGVGFLHWYQQKPGKAPKLLIYRASNLESGIPSRFSGSGSRTDFTLTISSLQPEDFATYYCQQTNEDPYTFGQGTKVEIKR
modifications: labeling may sit on this chain; sites not stated; labeling portion (MW 958) on amino groups of the Fab, sites and chain not stated; 1-3 per Fab by MS
notes: also called Ex-No 9; conjugate 9
The molecule B7 yielded an EC50 of 100 pM.

B8: (Y-S1-X)p-Fab^2 with Y Gd/DOTA, S1 -NH-CH2-(1,3-Ph)-C(═O)-, X -Gly-Tyr*-CH2-C(═O)-NH-(CH2)2-Z1(#N)- (Fab, V domains shown)
VH: EVQLVESGGGLVQPGGSLRLSCAASGFNIRDTYMHWVRQAPGKGLEWVARIDPANGNSRYVPKFQGRFTISADTSRNTAYLQMNSLRAEDTAVYYCAPFGYYVSDYAMAYWGQGTLVTVSS
VL: DIQLTQSPSSLSASVGDRVTITCRAGESVDIFGVGFLHWYQQKPGKAPKLLIYRASNLESGIPSRFSGSGSRTDFTLTISSLQPEDFATYYCQQTNEDPYTFGQGTKVEIKR
modifications: labeling may sit on this chain; sites not stated; labeling portion (MW 1093) on amino groups of the Fab, sites and chain not stated; 1-3 per Fab by MS
notes: also called Ex-No 14; conjugate 14
Molecule B8 yielded an EC50 of 130 pM.

The term EC50 denotes the midpoint of the concentration-response curve.

These data come from patent US20220096653A1, “CONJUGATE COMPRISING LIGAND AND CEACAM5 ANTIBODY FAB FRAGMENT” (ASTELLAS PHARMA INC., priority 2019, published 2022).
